Target: H6MA-CA, His-tagged matrix-capsid (MAp17-CAp24) domains of the HIV-1 Gag precursor (HIV-1 (pNL4-3))
Assay: ITC

B1: Ank^GAG1D4 (designed binder)
chain: DLGKKLLEAARAGQDDEVRLLLEHGADVNARDSIGSTPLHLAAYYGHLEIVRLLLEHGADVNARDSTGTTPLHYAARLGHLEIVRLLLEHGADVNARDAMGWTPLHLAAKKGHLEIVRLLLKHGADVNANDHFGKTAFDISIDNGNEDLAEILQSFNHHHHHH
Binder B1 has a Kd of 1090 nM.

From paper PMC3308923 (2012)
